2 proteins from PMC11672308 can be followed below.

One data set in a line: IF staining, 293T. To be noted: glycan lost; control: GLUT1-WT.
Data set [1] is described as follows: IF co-staining, Ishikawa cells. To be noted: glycan changed form; control: shC with GAL9 overexpression.

B1: GLUT1: N45D (protein)
parent chain: MEPSSKKLTGRLMLAVGGAVLGSLQFGYNTGVINAPQKVIEEFYNQTWVHRYGESILPTTLTTLWSLSVAIFSVGGMIGSFSVGLFVNRFGRRNSMLMMNLLAFVSAVLMGFSKLGKSFEMLILGRFIIGVYCGLTTGFVPMYVGEVSPTALRGALGTLHQLGIVVGILIAQVFGLDSIMGNKDLWPLLLSIIFIPALLQCIVLPFCPESPRFLLINRNEENRAKSVLKKLRGTADVTHDLQEMKEESRQMMREKKVTILELFRSPAYRQPILIAVVLQLSQQLSGINAVFYYSTSIFEKAGVQQPVYATIGSGIVNTAFTVVSLFVVERAGRRTLHLIGLAGMAGCAILMTIALALLEQLPWMSYLSIVAIFGFVAFFEVGPGPIPWFIVAELFSQGPRPAAIAVAGFSNWTSNFIVGMCFQYVEQLCGPYVFIIFTVLLVLFFIFTYFKVPETKGRTFDEIASGFRQGGASQSDKTPEELFHPLGADSQV
For B1, in the data set “IF staining, 293T”, the localisation_or_trafficking entry is reported as “decreases”.

B2: GLUT1: MGAT4A knockdown (protein)
parent chain: MEPSSKKLTGRLMLAVGGAVLGSLQFGYNTGVINAPQKVIEEFYNQTWVHRYGESILPTTLTTLWSLSVAIFSVGGMIGSFSVGLFVNRFGRRNSMLMMNLLAFVSAVLMGFSKLGKSFEMLILGRFIIGVYCGLTTGFVPMYVGEVSPTALRGALGTLHQLGIVVGILIAQVFGLDSIMGNKDLWPLLLSIIFIPALLQCIVLPFCPESPRFLLINRNEENRAKSVLKKLRGTADVTHDLQEMKEESRQMMREKKVTILELFRSPAYRQPILIAVVLQLSQQLSGINAVFYYSTSIFEKAGVQQPVYATIGSGIVNTAFTVVSLFVVERAGRRTLHLIGLAGMAGCAILMTIALALLEQLPWMSYLSIVAIFGFVAFFEVGPGPIPWFIVAELFSQGPRPAAIAVAGFSNWTSNFIVGMCFQYVEQLCGPYVFIIFTVLLVLFFIFTYFKVPETKGRTFDEIASGFRQGGASQSDKTPEELFHPLGADSQV
As for B2, the localisation_or_trafficking entry in data set [1] is reported as “decreases”.
